# According to patent publication US20250382344A1, “Soluble GLP1/GIP/NPY2 Receptor Triple Agonists” (Boehringer Ingelheim International GmH, priority 2024, published 2025):
# Positions count from the first letter of the chain named. *1 amine or outer side, *2 acyl side, *3 side chain or, on linkers, in order; H or OH if unused. Where no end group is shown, it is not given here. Side-chain parts run from the residue outwards. [ ]: non-standard residue; d: D form. The star is where a group is joined. γDab = gamma-linked diaminobutyric acid unit, O=C([C@H](CCN[*:1])N[*:3])[*:2]; C20 diacid = O=C(O)CCCCCCCCCCCCCCCCCCC(=O)*; C18 diacid = O=C(O)CCCCCCCCCCCCCCCCC(=O)*; γGlu = O=C(O)[C@H](CCC(=O)[*:2])N[*:1]; εLys = N[C@@H](CCCCN[*:1])C(=O)[*:2]; dtOrn = not defined here; TRX = not defined here; AEEA = NCCOCCOCC(=O)O; Aib = CC(C)(N)C(=O)O
# T1: human GIP receptor (human, UniProt P48546 22-466)
# T1 sequence (looked up): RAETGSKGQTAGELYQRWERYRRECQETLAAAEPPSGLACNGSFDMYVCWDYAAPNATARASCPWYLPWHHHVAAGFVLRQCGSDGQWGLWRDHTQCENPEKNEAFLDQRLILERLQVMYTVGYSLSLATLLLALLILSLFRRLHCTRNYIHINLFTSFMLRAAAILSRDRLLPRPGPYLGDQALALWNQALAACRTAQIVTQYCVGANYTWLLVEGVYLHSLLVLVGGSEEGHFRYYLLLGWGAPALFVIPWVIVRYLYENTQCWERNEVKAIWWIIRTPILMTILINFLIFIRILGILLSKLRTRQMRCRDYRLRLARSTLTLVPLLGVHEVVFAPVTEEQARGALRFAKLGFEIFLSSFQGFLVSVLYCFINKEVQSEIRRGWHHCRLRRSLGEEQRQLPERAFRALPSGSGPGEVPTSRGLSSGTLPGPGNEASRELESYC
# T2: human neuropeptide Y2 receptor (human, UniProt P49146 1-381)
# T2 sequence (looked up): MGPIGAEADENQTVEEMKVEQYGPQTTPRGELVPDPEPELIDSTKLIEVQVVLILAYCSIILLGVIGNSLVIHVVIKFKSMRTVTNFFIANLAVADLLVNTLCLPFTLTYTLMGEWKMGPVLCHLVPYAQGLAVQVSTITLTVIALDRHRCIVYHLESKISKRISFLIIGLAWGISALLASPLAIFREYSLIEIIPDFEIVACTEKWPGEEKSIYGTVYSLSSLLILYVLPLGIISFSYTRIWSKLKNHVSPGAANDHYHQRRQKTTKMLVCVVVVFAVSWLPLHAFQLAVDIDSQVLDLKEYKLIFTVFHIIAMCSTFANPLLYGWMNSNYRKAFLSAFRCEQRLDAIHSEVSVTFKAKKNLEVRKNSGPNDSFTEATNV
# B1: Compound 167 (peptide)
# peptide: YXEGTFTSDYSIXLEKQAQXAFVRHLINKXTRQRY
# modifications: Aib at 2, 13, 20, 30; Lys29 epsilon-amino: C20DA-gGlu-gGlu-gGlu-gGlu-gGlu-AHX; C-terminal amide
# B2: Compound 87 (peptide)
# peptide: Y[Aib]EGTFTSDYSI[Aib]LEKQAQ[Aib]AFVRHLINK([dtOrn-γGlu-γGlu-γGlu-γGlu-γGlu-γGlu-C18 diacid])[Aib]TRQRY-NH2
# modifications: reading uncertain
# B3: Compound 92 (peptide)
# peptide: B1 peptide
# modifications: Aib at 2, 13, 20, 30; Lys29 epsilon-amino: C18DA-gGlu-gGlu-gGlu-gGlu-gGlu-gGlu-eLys; C-terminal amide
# B4: Compound 103 (peptide)
# peptide: B1 peptide with Q19E
# modifications: Aib at 2, 20, 30; aMeL at 13; Lys29 epsilon-amino: C20DA-gGlu-gGlu-gGlu-gGlu-gGlu-gGlu-eLys; C-terminal amide
# B5: Compound 104 (peptide)
# peptide: B1 peptide with Q19E
# modifications: Aib at 2, 13, 20, 30; Lys29 epsilon-amino: C20DA-gGlu-gGlu-gGlu-gGlu-gGlu-gGlu-eLys; C-terminal amide
# B6: Compound 105 (peptide)
# peptide: B1 peptide with E15D
# modifications: Aib at 2, 13, 20, 30; Lys29 epsilon-amino: C18DA-gGlu-gGlu-gGlu-gGlu-gGlu-gGlu-eLys; C-terminal amide
# B7: Compound 111 (peptide)
# peptide: B1 peptide with Q19A
# modifications: Aib at 2, 13, 20, 30; Lys29 epsilon-amino: C18DA-gGlu-gGlu-gGlu-gGlu-gGlu-gGlu-eLys; C-terminal amide
# B8: Compound 115 (peptide)
# peptide: B1 peptide with Y10L, I27L
# modifications: Aib at 2, 13, 20, 30; Lys29 epsilon-amino: C20DA-gGlu-gGlu-gGlu-gGlu-gGlu-gGlu-eLys; C-terminal amide
# B9: Compound 120 (peptide)
# peptide: Y[Aib]EGTFTSDYSI[Aib]LEKQAQ[Aib]AFVRHLINK([γDab-γGlu-γGlu-γGlu-γGlu-γGlu-γGlu-C18 diacid])[Aib]TRQRY-NH2
# B10: Compound 134 (peptide)
# peptide: Y[Aib]EGTFTSDYSI[Aib]LEKQAQ[Aib]AFVRHLINK([γGlu-γGlu-γGlu-γGlu-γGlu-γGlu-C18 diacid])[Aib]TRQRY-NH2
# B11: Compound 145 (peptide)
# peptide: B1 peptide with A21E
# modifications: Aib at 2, 13, 20, 30; Lys29 epsilon-amino: C18DA-gGlu-gGlu-gGlu-gGlu-gGlu-gGlu-eLys; C-terminal amide
# B12: Compound 161 (peptide)
# peptide: Y[Aib]EGTFTSDYSI[Aib]LEKQAE[Aib]AFVRHLINK([εLys-AEEA-γGlu-γGlu-γGlu-γGlu-γGlu-C20 diacid])[Aib]TRQRY-NH2
# B13: Compound 106 (peptide)
# peptide: B1 peptide
# modifications: Aib at 2, 13, 20, 30; Lys29 epsilon-amino: C20DA-gGlu-gGlu-gGlu-gGlu-gGlu-AHX-AHX; C-terminal amide
# B14: Compound 121 (peptide)
# peptide: Y[Aib]EGTFTSDYSI[Aib]LEKQAQ[Aib]AFVRHLINK([εLys-γGlu-γGlu-γGlu-γGlu-γGlu-γGlu-γGlu-C18 diacid])[Aib]TRQRY-NH2
# B15: Compound 122 (peptide)
# peptide: B1 peptide with X13L
# modifications: Aib at 2, 20, 30; Lys29 epsilon-amino: C18DA-gGlu-gGlu-gGlu-gGlu-gGlu; C-terminal amide
# B16: Compound 127 (peptide)
# peptide: B1 peptide with X30L
# modifications: Aib at 2, 13, 20; Lys29 epsilon-amino: C18DA-gGlu-gGlu-gGlu-gGlu-gGlu-gGlu-eLys; C-terminal amide
# B17: Compound 133 (peptide)
# peptide: Y[Aib]EGTFTSDYSI[Aib]LEKQAQ[Aib]AFVRHLINK([γGlu-γGlu-γGlu-γGlu-γGlu-γGlu-TRX-C20 diacid])[Aib]TRQRY-NH2
# modifications: reading uncertain
# B18: Compound 135 (peptide)
# peptide: Y[Aib]EGTFTSDLSI[Aib]LEKQAQ[Aib]AFVRHLINK([εLys-γGlu-γGlu-γGlu-γGlu-γGlu-γGlu-γGlu-C20 diacid])[Aib]TRQRY-NH2
# B19: Compound 136 (peptide)
# peptide: Y[Aib]EGTFTSDYSI[Aib]LEKQAQ[Aib]AFVRHLINK([γGlu-γGlu-AEEA-γGlu-γGlu-γGlu-γGlu-C20 diacid])[Aib]TRQRY-NH2
# B20: Compound 139 (peptide)
# peptide: B1 peptide with L26A
# modifications: Aib at 2, 13, 20, 30; Lys29 epsilon-amino: C18DA-gGlu-gGlu-gGlu-gGlu-gGlu-gGlu-eLys; C-terminal amide
# B21: Compound 140 (peptide)
# peptide: B1 peptide
# modifications: Aib at 2, 13, 20, 30; Lys29 epsilon-amino: C18DA-gGlu-gGlu-gGlu-gGlu-gGlu-OEG; C-terminal amide
# B22: Compound 142 (peptide)
# peptide: B1 peptide with S11A
# modifications: Aib at 2, 13, 20, 30; Lys29 epsilon-amino: C18DA-gGlu-gGlu-gGlu-gGlu-gGlu-gGlu-eLys; C-terminal amide
# B23: Compound 150 (peptide)
# peptide: B1 peptide
# modifications: Aib at 2, 20, 30; aMeL at 13; Lys29 epsilon-amino: C20DA-gGlu-gGlu-gGlu-gGlu-gGlu-gGlu-eLys; C-terminal amide
# B24: Compound 151 (peptide)
# peptide: B1 peptide with X20Y
# modifications: Aib at 2, 13, 30; Lys29 epsilon-amino: C18DA-gGlu-gGlu-gGlu-gGlu-gGlu-gGlu-eLys; C-terminal amide
# B25: Compound 153 (peptide)
# peptide: B1 peptide with E15D, H25Y
# modifications: Aib at 2, 13, 20, 30; Lys29 epsilon-amino: C18DA-gGlu-gGlu-gGlu-gGlu-gGlu-gGlu-eLys; C-terminal amide
# B26: Compound 155 (peptide)
# peptide: Y[Aib]EGTFTSDYSI[Aib]LDEQAQ[Aib]AFVRHLINK([εLys-εLys-γGlu-γGlu-γGlu-γGlu-γGlu-C20 diacid])[Aib]TRQRY-NH2
# B27: Compound 158 (peptide)
# peptide: B1 peptide with X30L
# modifications: Aib at 2, 13, 20; Lys29 epsilon-amino: C18DA-gGlu-gGlu-gGlu-gGlu-gGlu; C-terminal amide
# B28: Compound 159 (peptide)
# peptide: B1 peptide with X30A
# modifications: Aib at 2, 13, 20; Lys29 epsilon-amino: C18DA-gGlu-gGlu-gGlu-gGlu-gGlu-gGlu-eLys; C-terminal amide
# B29: Compound 162 (peptide)
# peptide: Y[Aib]EGTFTSDYSI[Aib]LEKQAE[Aib]AFVRHLINK([εLys-γGlu-γGlu-AEEA-γGlu-γGlu-γGlu-C20 diacid])[Aib]TRQRY-NH2
# B30: Compound 163 (peptide)
# peptide: Y[Aib]EGTFTSDYSI[Aib]LEKQAQ[Aib]EFVRHLINK([εLys-γGlu-γGlu-γGlu-γGlu-C18 diacid])[Aib]TRQRY-NH2
# Target: human GLP-1 receptor (human, UniProt P43220 24-463)
# Assay: cell-based or functional assay
Binder,"EC50, CreLuc reporter, 0.5% hP","EC50, CreLuc reporter, 100% hP"
B1,1 nM,18.7 nM
B2,,5.6 nM
B3,,2 nM
B4,0.4 nM,0.6 nM
B5,2 nM,12.9 nM
B6,0.3 nM,3.4 nM
B7,4.7 nM,6.1 nM
B8,7 nM,9.8 nM
B9,,4 nM
B10,1 nM,4 nM
B11,0.5 nM,1.8 nM
B12,2 nM,5 nM

# Target: T1, human GIP receptor
# Assay: cell-based or functional assay
Binder,"EC50, CreLuc reporter, 100% hP","EC50, CreLuc reporter, 0.5% hP"
B13,4.7 nM,
B14,2.8 nM,
B15,4.5 nM,0.1 nM
B16,16.7 nM,
B17,3.4 nM,
B18,5.8 nM,0.5 nM
B19,9.1 nM,0.5 nM
B20,22.3 nM,12.2 nM
B21,8 nM,
B22,3.4 nM,0.3 nM
B23,2.8 nM,
B24,5.6 nM,0.5 nM
B25,,0.1 nM
B26,6.1 nM,0.7 nM
B27,14.4 nM,0.5 nM
B28,,0.2 nM
B29,,0.7 nM
B30,5.9 nM,0.2 nM

# Target: T2, human neuropeptide Y2 receptor
# Assay: cell-based or functional assay
Binder,"EC50, CreLuc reporter, 0.5% hP","EC50, CreLuc reporter, 100% hP"
B1,13.3 nM,267 nM
B2,16.5 nM,
B3,,22.6 nM
B4,25.9 nM,131 nM
B5,17.5 nM,129 nM
B6,19.9 nM,49.6 nM
B13,7.1 nM,41.7 nM
B7,53.6 nM,77.4 nM
B8,10.1 nM,107 nM
B9,23.9 nM,
B14,13.8 nM,
B15,60.8 nM,284 nM
B16,10.3 nM,76.9 nM
B17,44.9 nM,246 nM
B18,18.8 nM,47.8 nM
B19,38.5 nM,123 nM
B20,,22.7 nM
B21,22 nM,141 nM
B22,17.4 nM,31.8 nM
B11,,94.2 nM
B23,,90.7 nM
B24,32.6 nM,89.8 nM
B25,40 nM,65.5 nM
B26,6 nM,63.1 nM
B27,26 nM,149 nM
B28,11.5 nM,57.5 nM
B29,,43.8 nM
B30,,218 nM
